Test results: patent US20260000643A1, “Combination Of Curaxins And Immune Checkpoint Inhibitors For Treating Cancer” (Institute For Cancer Research d/b/a The Research Institute …, priority 2022, published 2026)

System: ADAR1 KO FLAG-ZBP1 MEFs
Test: Cytokine-induced ZBP1-dependent cell death in ADAR1-deficient MEFs
Type: cell-based, murine
Details: cytokines 100 ng/mL, viability at 48 hours
Text: Immortalized Zbp1^−/− stably reconstituted with FLAG-ZBP1 MEFs were transiently transfected with TrueGuide Synthetic sgRNA against mouse Adar1 (ThermoFisher Scientific, CRISPR162007 SGM) and TrueCut Cas9 Protein (ThermoFisher Scientific, A36499) by Lipofectamine CRISPRMAX Cas9 Transfection Reagent (ThermoFisher Scientific, CMAX00008). After two days, cells were harvest and examined ADAR1 protein level by western blot.

Molecule: TNFα
- ZBP1-dependent cell death in ADAR1-deficient MEFs: not

B1: IL-1α: inflammatory cytokine of the tested panel (protein, UniProt P01583 113-271, looked up)
Interleukin-1 alpha: SAPFSFLSNVKYNFMRIIKYEFILNDALNQSIIRANDQYLTAAALHNLDEAVKFDMGAYKSSKDDAKITVILRISKTQLYVTAQDEDQPVLLKEMPEIPKTITGSETNLLFFWETHGTKNYFTSVAHPNLFIATKQDYWVCLAGGPPSITDFQILENQA
- ZBP1-dependent cell death in ADAR1-deficient MEFs: not

B2: IFNγ: inflammatory cytokine of the tested panel (protein, UniProt P01579 24-161, looked up)
Interferon gamma: QDPYVKEAENLKKYFNAGHSDVADNGTLFLGILKNWKEESDRKIMQSQIVSFYFKLFKNFKDDQSIQKSVETIKEDMNVKFFNSNKKKRDDFEKLTNYSVTDLNVQRKAIHELIQVMAELSPAAKTGKRKRSQMLFRG
- ZBP1-dependent cell death in ADAR1-deficient MEFs: induced ZBP1-dependent cell death

B3: TRAIL: inflammatory cytokine of the tested panel (protein, UniProt P50591 1-281, looked up)
Tumor necrosis factor ligand …: MAMMEVQGGPSLGQTCVLIVIFTVLLQSLCVAVTYVYFTNELKQMQDKYSKSGIACFLKEDDSYWDPNDEESMNSPCWQVKWQLRQLVRKMILRTSEETISTVQEKQQNISPLVRERGPQRVAAHITGTRGRSNTLSSPNSKNEKALGRKINSWESSRSGHSFLSNLHLRNGELVIHEKGFYYIYSQTYFRFQEEIKENTKNDKQMVQYIYKYTSYPDPILLMKSARNSCWSKDAEYGLYSIYQGGIFELKENDRIFVSVTNEHLIDMDHEASFFGAFLVG
- ZBP1-dependent cell death in ADAR1-deficient MEFs: not
